Measured values as given in the RNAGym collection of RNA variant scans (doi:10.1073/pnas.2313332121).

B1: TPR t1 (parent)
chain: GACCAAUCUGCCCUCAGAGCUCGAGAACAUCUUCGGAUGCAGAGGAGGCAGGCUUCGGUGGCGCGAUAGCGCCAACGUCCUCAACCUCCAAUGCAUCCCACCACAUGAUGAUGCCUGAAGAGCCUUGGUUUUUUG

Variants of: B1
Assay: polymerase ribozyme fitness, log enrichment relative to wild type (log ratio); higher = more active; in vitro selection for triplet polymerase activity
Procedure, shortened: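 One round of in vitro selection, in triplicate, was applied to PCR-built, transcribed mutant libraries of each subunit of a heterodimeric triplet polymerase ribozyme. The steps were annealing with a biotinylated primer, partner subunit and triplets, incubation frozen at −7 °C, gel excision of extended constructs, streptavidin-bead capture and RT-PCR. Fitness is the logarithm, base 2, of genotype enrichment over wild-type enrichment from inverse-variance-weighted replicate averages of Illumina-sequenced inputs and outputs, keeping genotypes with ≥10 input reads and ≥1 read per output.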

Variant | polymerase ribozyme fitness (log ratio)
GACCAAUCUGCCCUCAGAGCUCGAGAACAUCUUCGGAUGCAGAGGAGGCAGGCUUCGGUGGCGCGAUAGCGCCAACGUCCUCAACCUCCAAUGCAUCCCACCACAUGAUGAUGCCUGAAGCGCCGUGGUUUUUUG [A121C U125G] | 0.923
GACCAAUCUGCCCUCAGAGCUCGAGAACAUCUUCGGAUGCAGAGGAGGCAGGCUUCGGUGGCGCGAUAGCGCCAACGUCCUCAACCUCCAAUGCAUCCCACCACAUGAUGAUGCCUGAAGAGCCUUCUUUUUAUG [G127C G128U U133A] | -1.83
GACCAAUCUGCCCUCAGAGCUCGAGAACAUCUUCGGAUGCAGAGGAGGCAGGCUUCGGUGGCGCGAUAGCGCCAACGUCCUCAACCUCCAAUGCAUCCCACCACAUGAUGAUGCCUGAAUAGGCUUGGUUUUUUG [G120U C123G] | 1.47
GACCAAUCUGCCCUCAGAGCUCGAGAACAUCUUCGGAUGCAGAGGAGGCAGGCUUCGGUGGCGCGAUAGCGCCAACGUCCUCAACCUCCAAUGCAUCCCACCACAUGAUGAUGCCUGAAAAGCCUUGGUUUUUUG [G120A] | 0.66
GACCAAUCUGCCCUCAGAGCUCGAGAACAUCUUCGGAUGCAGAGGAGGCAGGCUUCGGUGGCGCGAUAGCGCCAACGUCCUCAACCUCCAAUGCAUCCCACCACAUGAUGAUGCCUGAAUAGCCUUGGUUUUUUG [G120U] | 0.195
GACCAAUCUGCCCUCAGAGCUCGAGAACAUCUUCGGAUGCAGAGGAGGCAGGCUUCGGUGGCGCGAUAGCGCCAACGUCCUCAACCUCCAAUGCAUCCCACCACAUGAUGAUGCCUGAACAGCCUUGGUUUUUUG [G120C] | 1.05
GACCAAUCUGCCCUCAGAGCUCGAGAACAUCUUCGGAUGCAGAGGAGGCAGGCUUCGGUGGCGCGAUAGCGCCAACGUCCUCAACCUCCAAUGCAUCCCACCACAUGAUGAUGCCUGAAAAGCCUUGGUUUCUUG [G120A U132C] | 0.977
GACCAAUCUGCCCUCAGAGCUCGAGAACAUCUUCGGAUGCAGAGGAGGCAGGCUUCGGUGGCGCGAUAGCGCCAACGUCCUCAACCUCCAAUGCAUCCCACCACAUGAUGAUGCCUGAUGAGCCUUUGUUUUUUG [A119U G127U] | -2.01
GACCAAUCUGCCCUCAGAGCUCGAGAACAUCUUCGGAUGCAGAGGAGGCAGGCUUCGGUGGCGCGAUAGCGCCAACGUCCUCAACCUCCAAUGCAUCCCACCACAUGAUGAUGCCUGAAAAGCCUUCGUUUUUUG [G120A G127C] | -0.483
GACCAAUCUGCCCUCAGAGCUCGAGAACAUCUUCGGAUGCAGAGGAGGCAGGCUUCGGUGGCGCGAUAGCGCCAACGUCCUCAACCUCCAAUGCAUCCCACCACAUGAUGAUGCCUGAAGAGGCUUGGUUUUAUG [C123G U133A] | 2.19
GACCAAUCUGCCCUCAGAGCUCGAGAACAUCUUCGGAUGCAGAGGAGGCAGGCUUCGGUGGCGCGAUAGCGCCAACGUCCUCAACCUCCAAUGCAUCCCACCACAUGAUGAUGCCUGAACAGCCUUGGUUUUUUU [G120C G135U] | -0.76
GACCAAUCUGCCCUCAGAGCUCGAGAACAUCUUCGGAUGCAGAGGAGGCAGGCUUCGGUGGCGCGAUAGCGCCAACGUCCUCAACCUCCAAUGCAUCCCACCACAUGAUGAUGCCUGAACAGCCUUGGUUUUUUA [G120C G135A] | 0.738
GACCAAUCUGCCCUCAGAGCUCGAGAACAUCUUCGGAUGCAGAGGAGGCAGGCUUCGGUGGCGCGAUAGCGCCAACGUCCUCAACCUCCAAUGCAUCCCACCACAUGAUGAUGCCUGAUGAGUCUUGGUUUUUUG [A119U C123U] | 2.17
GACCAAUCUGCCCUCAGAGCUCGAGAACAUCUUCGGAUGCAGAGGAGGCAGGCUUCGGUGGCGCGAUAGCGCCAACGUCCUCAACCUCCAAUGCAUCCCACCACAUGAUGAUGCCUGAUGAGCCUUGGUUUAUUG [A119U U132A] | -0.132
GACCAAUCUGCCCUCAGAGCUCGAGAACAUCUUCGGAUGCAGAGGAGGCAGGCUUCGGUGGCGCGAUAGCGCCAACGUCCUCAACCUCCAAUGCAUCCCACCACAUGAUGAUGCCUGAAGAGGCUUGGUUAUUUG [C123G U131A] | 0.367
GACCAAUCUGCCCUCAGAGCUCGAGAACAUCUUCGGAUGCAGAGGAGGCAGGCUUCGGUGGCGCGAUAGCGCCAACGUCCUCAACCUCCAAUGCAUCCCACCACAUGAUGAUGCCUGAAGAGCCUUUAUUUUUUG [G127U G128A] | -2.19
GACCAAUCUGCCCUCAGAGCUCGAGAACAUCUUCGGAUGCAGAGGAGGCAGGCUUCGGUGGCGCGAUAGCGCCAACGUCCUCAACCUCCAAUGCAUCCCACCACAUGAUGAUGCCUGAAGAACCUUGGUUUUUUG [G122A] | -0.49
GACCAAUCUGCCCUCAGAGCUCGAGAACAUCUUCGGAUGCAGAGGAGGCAGGCUUCGGUGGCGCGAUAGCGCCAACGUCCUCAACCUCCAAUGCAUCCCACCACAUGAUGAUGCCUGAAGACCCUUGGUUUUUUG [G122C] | -2.37
GACCAAUCUGCCCUCAGAGCUCGAGAACAUCUUCGGAUGCAGAGGAGGCAGGCUUCGGUGGCGCGAUAGCGCCAACGUCCUCAACCUCCAAUGCAUCCCACCACAUGAUGAUGCCUGAAGAUCCUUGGUUUUUUG [G122U] | 0.322
GACCAAUCUGCCCUCAGAGCUCGAGAACAUCUUCGGAUGCAGAGGAGGCAGGCUUCGGUGGCGCGAUAGCGCCAACGUCCUCAACCUCCAAUGCAUCCCACCACAUGAUGAUGCCUGAAGAACCUUGGUAUUUUG [G122A U130A] | -0.49
GACCAAUCUGCCCUCAGAGCUCGAGAACAUCUUCGGAUGCAGAGGAGGCAGGCUUCGGUGGCGCGAUAGCGCCAACGUCCUCAACCUCCAAUGCAUCCCACCACAUGAUGAUGCCUGAAAAUCCUUGGUUUUUUG [G120A G122U] | 0.476

Variant | polymerase ribozyme fitness (log ratio)
GACCAAUCUGCCCUCAGAGCUCGAGAACAUCUUCGGAUGCAGAGGAGGCAGGCUUCGGUGGCGCGAUAGCGCCAACGUCCUCAACCUCCAAUGCAUCCCACCACAUGAUGAUGCCUGAAGAGGCUUGGAUUUUUG [C123G U129A] | -1.13
GACCAAUCUGCCCUCAGAGCUCGAGAACAUCUUCGGAUGCAGAGGAGGCAGGCUUCGGUGGCGCGAUAGCGCCAACGUCCUCAACCUCCAAUGCAUCCCACCACAUGAUGAUGCCUGAAGAGACUUGUUUUUUUG [C123A G128U] | -0.255
GACCAAUCUGCCCUCAGAGCUCGAGAACAUCUUCGGAUGCAGAGGAGGCAGGCUUCGGUGGCGCGAUAGCGCCAACGUCCUCAACCUCCAAUGCAUCCCACCACAUGAUGAUGCCUGAAGAGACUUGGUUUUUUA [C123A G135A] | 0.422
GACCAAUCUGCCCUCAGAGCUCGAGAACAUCUUCGGAUGCAGAGGAGGCAGGCUUCGGUGGCGCGAUAGCGCCAACGUCCUCAACCUCCAAUGCAUCCCACCACAUGAUGAUGCCUGAAGAUCCUUGGUGUUUUG [G122U U130G] | -0.749
GACCAAUCUGCCCUCAGAGCUCGAGAACAUCUUCGGAUGCAGAGGAGGCAGGCUUCGGUGGCGCGAUAGCGCCAACGUCCUCAACCUCCAAUGCAUCCCACCACAUGAUGAUGCCUGAAGAUCGUUGGUAUUUUG [G122U C124G U130A] | 0.942
GACCAAUCUGCCCUCAGAGCUCGAGAACAUCUUCGGAUGCAGAGGAGGCAGGCUUCGGUGGCGCGAUAGCGCCAACGUCCUCAACCUCCAAUGCAUCCCACCACAUGAUGAUGCCUGAAGAGCCUUUGUUUCUUG [G127U U132C] | -0.0869
GACCAAUCUGCCCUCAGAGCUCGAGAACAUCUUCGGAUGCAGAGGAGGCAGGCUUCGGUGGCGCGAUAGCGCCAACGUCCUCAACCUCCAAUGCAUCCCACCACAUGAUGAUGCCUGAAGAGAUUUGGUUUUUUG [C123A C124U] | 2.15
GACCAAUCUGCCCUCAGAGCUCGAGAACAUCUUCGGAUGCAGAGGAGGCAGGCUUCGGUGGCGCGAUAGCGCCAACGUCCUCAACCUCCAAUGCAUCCCACCACAUGAUGAUGCCUGAAUAGCCUUGCUUUUUUG [G120U G128C] | -1.03
GACCAAUCUGCCCUCAGAGCUCGAGAACAUCUUCGGAUGCAGAGGAGGCAGGCUUCGGUGGCGCGAUAGCGCCAACGUCCUCAACCUCCAAUGCAUCCCACCACAUGAUGAUGCCUGAAUAGCCUUGGUUUUUUC [G120U G135C] | 1.16
GACCAAUCUGCCCUCAGAGCUCGAGAACAUCUUCGGAUGCAGAGGAGGCAGGCUUCGGUGGCGCGAUAGCGCCAACGUCCUCAACCUCCAAUGCAUCCCACCACAUGAUGAUGCCUGAAGAGGCCUGGUUUUUUG [C123G U125C] | 1.61
GACCAAUCUGCCCUCAGAGCUCGAGAACAUCUUCGGAUGCAGAGGAGGCAGGCUUCGGUGGCGCGAUAGCGCCAACGUCCUCAACCUCCAAUGCAUCCCACCACAUGAUGAUGCCUGAAGAGCAAUGGUUUUUUG [C124A U125A] | 1.57
GACCAAUCUGCCCUCAGAGCUCGAGAACAUCUUCGGAUGCAGAGGAGGCAGGCUUCGGUGGCGCGAUAGCGCCAACGUCCUCAACCUCCAAUGCAUCCCACCACAUGAUGAUGCCUGAAGUGCCAUGGUUUUUUG [A121U U125A] | 1.66
GACCAAUCUGCCCUCAGAGCUCGAGAACAUCUUCGGAUGCAGAGGAGGCAGGCUUCGGUGGCGCGAUAGCGCCAACGUCCUCAACCUCCAAUGCAUCCCACCACAUGAUGAUGCCUGAAGAGCAUUGUUUUUUUG [C124A G128U] | 0.625
GACCAAUCUGCCCUCAGAGCUCGAGAACAUCUUCGGAUGCAGAGGAGGCAGGCUUCGGUGGCGCGAUAGCGCCAACGUCCUCAACCUCCAAUGCAUCCCACCACAUGAUGAUGCCUGAAGUGCCUUGGUUUUUUC [A121U G135C] | 2.99
GACCAAUCUGCCCUCAGAGCUCGAGAACAUCUUCGGAUGCAGAGGAGGCAGGCUUCGGUGGCGCGAUAGCGCCAACGUCCUCAACCUCCAAUGCAUCCCACCACAUGAUGAUGCCUGAAGAGCCUUAGAUUUUUG [G127A U129A] | -1.26
GACCAAUCUGCCCUCAGAGCUCGAGAACAUCUUCGGAUGCAGAGGAGGCAGGCUUCGGUGGCGCGAUAGCGCCAACGUCCUCAACCUCCAAUGCAUCCCACCACAUGAUGAUGCCUGAAGAGUAUUGGUUUUUUG [C123U C124A] | 2.14
GACCAAUCUGCCCUCAGAGCUCGAGAACAUCUUCGGAUGCAGAGGAGGCAGGCUUCGGUGGCGCGAUAGCGCCAACGUCCUCAACCUCCAAUGCAUCCCACCACAUGAUGAUGCCUGAACAGCCUUGCUUUUUUG [G120C G128C] | -2.04
GACCAAUCUGCCCUCAGAGCUCGAGAACAUCUUCGGAUGCAGAGGAGGCAGGCUUCGGUGGCGCGAUAGCGCCAACGUCCUCAACCUCCAAUGCAUCCCACCACAUGAUGAUGCCUGAAGCGCCUUGAUUUUUUG [A121C G128A] | 0.0676
GACCAAUCUGCCCUCAGAGCUCGAGAACAUCUUCGGAUGCAGAGGAGGCAGGCUUCGGUGGCGCGAUAGCGCCAACGUCCUCAACCUCCAAUGCAUCCCACCACAUGAUGAUGCCUGAAGCGCCUUGCUUUUUUG [A121C G128C] | -0.622
GACCAAUCUGCCCUCAGAGCUCGAGAACAUCUUCGGAUGCAGAGGAGGCAGGCUUCGGUGGCGCGAUAGCGCCAACGUCCUCAACCUCCAAUGCAUCCCACCACAUGAUGAUGCCUGAAGAGCCUUAGUCUUUUG [G127A U130C] | -0.727
GACCAAUCUGCCCUCAGAGCUCGAGAACAUCUUCGGAUGCAGAGGAGGCAGGCUUCGGUGGCGCGAUAGCGCCAACGUCCUCAACCUCCAAUGCAUCCCACCACAUGAUGAUGCCUGAAGAGCUUAGGUUUUUUG [C124U U126A] | 1.37
